Columns and labels:
lamp2_human LAMP2 [1] = molecular target: lamp2_human LAMP2 (UniProt P13473)
lamp2_rat Lamp2 = lamp2_rat Lamp2 (UniProt P17046)
lamp2_human LAMP2 [2] = molecular target: lamp2_human LAMP2 (UniProt P13473); remark: listed apart in the source

Chain of lamp2_rat Lamp2 (P17046 whole entry): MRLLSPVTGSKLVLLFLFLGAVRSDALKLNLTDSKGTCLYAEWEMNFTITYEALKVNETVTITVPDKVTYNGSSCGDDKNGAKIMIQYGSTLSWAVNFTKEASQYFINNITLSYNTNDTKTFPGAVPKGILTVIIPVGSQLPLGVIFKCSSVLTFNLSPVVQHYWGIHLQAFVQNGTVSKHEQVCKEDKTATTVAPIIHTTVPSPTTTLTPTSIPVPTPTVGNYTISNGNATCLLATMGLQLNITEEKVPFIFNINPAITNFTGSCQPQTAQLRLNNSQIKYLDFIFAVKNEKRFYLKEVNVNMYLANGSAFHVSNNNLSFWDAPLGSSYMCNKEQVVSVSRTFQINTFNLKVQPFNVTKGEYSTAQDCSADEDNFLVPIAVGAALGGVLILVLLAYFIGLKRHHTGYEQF
Chain of lamp2_human LAMP2 (P13473 whole entry): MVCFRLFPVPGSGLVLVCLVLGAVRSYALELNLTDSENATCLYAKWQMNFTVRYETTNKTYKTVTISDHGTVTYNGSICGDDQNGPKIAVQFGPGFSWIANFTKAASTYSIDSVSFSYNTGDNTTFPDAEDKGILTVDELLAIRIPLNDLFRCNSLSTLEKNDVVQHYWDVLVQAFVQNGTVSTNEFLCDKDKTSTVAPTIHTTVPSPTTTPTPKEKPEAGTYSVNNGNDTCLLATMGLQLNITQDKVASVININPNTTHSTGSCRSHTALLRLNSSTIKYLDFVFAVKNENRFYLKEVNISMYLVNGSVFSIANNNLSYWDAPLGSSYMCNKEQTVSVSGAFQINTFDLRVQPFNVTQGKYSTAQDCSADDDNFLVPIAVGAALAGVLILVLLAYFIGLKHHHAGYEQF

Substance | effect of a mutation on the interaction (lamp2_human LAMP2 [1]) | effect of a mutation on the interaction (lamp2_rat Lamp2) | effect of a mutation on the interaction (lamp2_human LAMP2 [2])
Leucine-rich repeat serine/threonine-protein kinase 2 (Homo sapiens), Q5S007 G2019S | increasing interaction | increasing interaction | –
Leucine-rich repeat serine/threonine-protein kinase 2 (Homo sapiens), Q5S007 R1441C | – | increasing interaction | increasing interaction
